This note sets out measurements from patent US20140235701, “NGF APTAMER AND APPLICATION THEREOF” (RIBOMIC INC., published 2014).

Some results are limits rather than exact numbers.

The term IC50 denotes the midpoint of a concentration-inhibition curve. A lower IC50 goes with higher potency.

T1: NT-3 (neurotrophin-3) (Homo sapiens, UniProt P20783 P20783:139-257)
T1 sequence: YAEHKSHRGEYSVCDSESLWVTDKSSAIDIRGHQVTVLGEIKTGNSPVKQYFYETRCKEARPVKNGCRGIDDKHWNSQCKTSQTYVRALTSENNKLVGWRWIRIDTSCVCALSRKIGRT

T2: NT-4 (neurotrophin-4) (Homo sapiens, UniProt P34130 P34130:81-210)
T2 sequence: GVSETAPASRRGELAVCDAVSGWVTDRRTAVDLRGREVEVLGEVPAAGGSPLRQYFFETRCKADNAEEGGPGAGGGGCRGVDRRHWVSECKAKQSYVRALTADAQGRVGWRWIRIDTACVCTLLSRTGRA

B1: SEQ ID NO: 82(16) (ssRNA)
RNA: GGGUCCUGGAUAAGAGUUUCCGUCUCGUAUCCUGUUACCC
modifications: 2'-F C and U except C38; 2'-OMe G1-3,G9,G14,G16,G22,G27,C38; 2'-OH G8,G34; 2'-H A; idT 5' and 3'
B2: SEQ ID NO: 82(2) (ssRNA)
RNA: GGGUCCUGGAUAAGAGUUUCCGUCUCGUAUCCUGUUACCC
modifications: 2'-F C and U except U4; 2'-OMe G1-3,U4,G9,G14,G16,G22,G27; 2'-OH G8,G34; 2'-H A; idT 5' and 3'
B3: SEQ ID NO: 162 (ssRNA)
RNA: GGGUCCUGGAUAAGAGTUUCCGUCUCGUAUCCTGUUACCC
modifications: 2'-F C5,U7,U18,U19,C20,C24,U25,U36; dT17,dT33; 2'-OH G8,G34; 2'-H A; 2'-OMe all other; idT 5' and 3'
B4: SEQ ID NO: 82(55) (ssRNA)
RNA: GGGUCCUGGAUAAGAGUUUCCGUCUCGUAUCCUGUUACCC
modifications: 2'-F C5,U7,U17,U18,U19,C20,C24,U25,U33,U36; 2'-OH G8,G34; 2'-H A; 2'-OMe all other; 5' PEG80TS4; 3' idT
B5: SEQ ID NO: 82(25) (ssRNA)
RNA: GGGUCCUGGAUAAGAGUUUCCGUCUCGUAUCCUGUUACCC
modifications: 2'-F C5,U7,U17,U18,U19,C20,C24,U25,U33,U36; 2'-OH G8,G34; 2'-H A; 2'-OMe all other; idT 5' and 3'
B6: SEQ ID NO: 158 (ssRNA)
RNA: GGGUCCUGGAUAAGAGUUUCCGUCUCGUAUCCTGUUACCC
modifications: as 82(1) except dT33
B7: SEQ ID NO: 63 (ssRNA)
RNA: GGGUCCUGCUGCGUAGUUUCCGUCUACGUGGCUGUUACCC
modifications: 2'-F C/U, dA, 2'-OH G
B8: SEQ ID NO: 65 (ssRNA)
RNA: GGGUCCUGCUACGGAGUUUCCGUCUCGGUGGCUGUUACCC
modifications: 2'-F C/U, dA, 2'-OH G
B9: SEQ ID NO: 75 (ssRNA)
RNA: GGGUCCUGCUGCGUAGUUUCCGUCUUCGCGGUUGUUACCC
modifications: 2'-F C/U, dA, 2'-OH G
B10: SEQ ID NO: 64 (ssRNA)
RNA: GGGUCCUGUUGCGUAGUUUCCGUCUACGUGACUGUUACCC
modifications: 2'-F C/U, dA, 2'-OH G
B11: SEQ ID NO: 69 (ssRNA)
RNA: GGGUCCUGUUGCGUAGUUUCCGUCUGCGUGGCUGUUACCC
modifications: 2'-F C/U, dA, 2'-OH G
B12: SEQ ID NO: 79(1) (ssRNA)
RNA: GGGUCCUGGUUAAGAGUUUCCGUCUCGUAACCUGUUACCC
modifications: 2'-OMe G (G8,G34 2'-OH), dA, 2'-F C/U; 5',3' idT

T3 sequence (P01138 122-241, one chain of several): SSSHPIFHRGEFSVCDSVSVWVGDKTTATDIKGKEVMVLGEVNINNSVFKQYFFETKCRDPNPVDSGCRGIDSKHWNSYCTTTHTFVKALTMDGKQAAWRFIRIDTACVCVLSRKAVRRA

The target of one data set is T3, NGF (nerve growth factor) (Homo sapiens, UniProt P01138 P01138:122-241). In words: cell_activity; TF-1 cell proliferation inhibition. The following applies: tags: R&D Systems; chain copies: 2. As to the method:
Two NGF receptor (human TrkA and human p75) genes were introduced into TF-1 cells (ATCC Number: CRL-2003), which is a human erythroleukemic cell line, by using a retrovirus vector to give cells that highly express two receptors simultaneously and stably. The cells were suspended in an RPMI-1640 medium containing 20% fetal bovine serum, and seeded in a white 96 well flat-bottom plate at 1000 cells (50 μL) per well. […] With the amount of luminescence per well obtained by the addition of NGF alone and culture of the cells for 3 days as inhibitory activity 0%, and that of the well obtained by NGF free culture for 3 days as inhibitory activity 100%, the inhibitory activity of the aptamer was calculated from the amount of luminescence per well obtained by culturing with the addition of NGF and the aptamer in mixture.
Molecule B1 showed an IC50 of 26 pM.
Same read-out and setting: next, B2: 41 pM; B3: 14 pM; B4: 39 pM.
The same measure, in the same setting: next, B5: 85 pM.

In the next data set the target is T1, NT-3 (neurotrophin-3). In words: cell_activity; TF-1. The following applies: tags: R&D Systems; chain copies: 2. An excerpt: (§1) Using TF-1 cells, whether NGF aptamer inhibits BDNF, NT-3, NT-4 was examined. Human receptor genes (TrkB, TrkC, p75) for respective neurotrophic factors were introduced into TF-1 cells (ATCC Number: CRL-2003), which is a human erythroleukemic cell line, by using a retrovirus vector to give cells that highly express these receptors stably. TF-1 cells introduced with TrkB and p75 were used for the evaluation of inhibitory activity against BDNF, TF-1 cells introduced with TrkC and p75 were used for the evaluation against NT-3, and TF-1 cells introduced with TrkB alone were used for the evaluation against NT-4. These cells were suspended in an RPMI-1640 medium containing 20% fetal bovine serum, and seeded in a white 96 well flat-bottom plate at 1000 cells (50 μL) per well. Thereto was added a mixed solution 50 μL of human BDNF (final concentration 0.074 nM) or NT-3 (final concentration 0.074 nM) or NT-4 (final concentration 0.071 nM) and the aptamer (final concentration 1 μM-0.01 nM), which had been pre-reacted at room temperature for 30 min in a serum-free RPMI-1640 medium, 3 days later, 100 μL of CellTiter-Glo reagent for CellTiter-Glo Luminescent Cell Viability Assay (manufactured by Promega) was added to each well, chemiluminescence was measured by a microplate reader. With the amount of luminescence per well obtained by the addition of BDNF or NT-3 or NT-4 alone and culture of the cells for 3 days as inhibitory activity 0%, and that of the well obtained by culture for 3 days without addition of BDNF or NT-3 or NT-4 as inhibitory activity 100%, the inhibitory activity of the aptamer was calculated from the amount of luminescence per well obtained by culturing with the addition of BDNF or NT-3 or NT-4 and the aptamer in mixture. When the inhibitory activity was 0 or below, ‘0%’ is indicated. The 50% inhibitory concentration (IC₅₀) was determined from the concentrations at two, above and below points sandwiching the 50% inhibitory activity. An IC₅₀ value indicated as “>X” means that the inhibitory activity was not more than 50% when the indicated concentration X was the maximum measured concentration. N.D. means not measured.
Take B6: the IC50 is under 30000 pM.

The next data set has as its target T2, NT-4 (neurotrophin-4). In words: cell_activity; TF-1. The following applies: tags: R&D Systems; chain copies: 2.
From the text: as §1
Consider B6, for which the IC50 is under 3000 pM.

For a further data set, the target named is T2, NT-4 (neurotrophin-4). In words: cell_activity; TF-1 TrkB cells. The note with it: tags: R&D Systems; chain copies: 2. An excerpt:
Using TF-1 cells, whether NGF aptamer inhibits BDNF, NT-3, NT-4 was examined. Human receptor genes (TrkB, TrkC, p75) for respective neurotrophic factors were introduced into TF-1 cells (ATCC Number: CRL-2003), which is a human erythroleukemic cell line, by using a retrovirus vector to give cells that highly express these receptors stably. TF-1 cells introduced with TrkB and p75 were used for the evaluation of inhibitory activity against BDNF, TF-1 cells introduced with TrkC and p75 were used for the evaluation against NT-3, and TF-1 cells introduced with TrkB alone were used for the evaluation against NT-4. These cells were suspended in an RPMI-1640 medium containing 20% fetal bovine serum, and seeded in a white 96 well flat-bottom plate at 1000 cells (50 μL) per well. Thereto was added a mixed solution 50 μL of human BDNF (final concentration 0.074 nM) or NT-3 (final concentration 0.074 nM) or NT-4 (final concentration 0.071 nM) and the aptamer (final concentration 1 μM-0.01 nM), which had been pre-reacted at room temperature for 30 min in a serum-free RPMI-1640 medium, 3 days later, 100 μL of CellTiter-Glo reagent for CellTiter-Glo Luminescent Cell Viability Assay (manufactured by Promega) was added to each well, chemiluminescence was measured by a microplate reader. With the amount of luminescence per well obtained by the addition of BDNF or NT-3 or NT-4 alone and culture of the cells for 3 days as inhibitory activity 0%, and that of the well obtained by culture for 3 days without addition of BDNF or NT-3 or NT-4 as inhibitory activity 100%, the inhibitory activity of the aptamer was calculated from the amount of luminescence per well obtained by culturing with the addition of BDNF or NT-3 or NT-4 and the aptamer in mixture. […] The 50% inhibitory concentration (IC₅₀) was determined from the concentrations at two, above and below points sandwiching the 50% inhibitory activity. An IC₅₀ value indicated as “>X” means that the inhibitory activity was not more than 50% when the indicated concentration X was the maximum measured concentration. N.D. means not measured.
Turning to B1, the IC50 was under 3000 pM.
With B2, the IC50 was under 3000 pM.
The molecule B5 returned an IC50 of 40400 pM.

The next data set addresses T3, NGF (nerve growth factor). In words: cell_activity; neurite outgrowth inhibition. The following applies: tags: R&D Systems; chain copies: 2. How it is done:
The cells (2500 cells per well) were cultured for one day in an RPMI-1640 medium containing 2.5% horse serum and 1.25% fetal bovine serum in a 96 well flat-bottom plate coated with collagen type IV. […] Two days later, the cytoplasm and nuclei were stained using Cellomics Neurite Outgrowth Kit (manufactured by Thermo Scientific), and neurite length per cell was measured by Cellomics ArrayScan VTI (manufactured by Thermo Scientific). With the neurite length per cell obtained by the addition of NGF alone as inhibitory activity 0%, and that of the cell obtained by NGF free culture for 2 days as inhibitory activity 100%, the inhibitory activity of the aptamer was calculated from the neurite length per cell obtained by culturing with the addition of NGF and the aptamer in mixture.
B3: the IC50 stood at 33 pM.
Molecule B4 displayed an IC50 of 101 pM. Against the preceding molecule, the IC50 is about 3.1-fold higher.
Same read-out and setting: next, B5: under 100 pM.

A further data set has as its target T3, NGF (nerve growth factor). In words: SPR; binding maintained. The note with it: tags: R&D Systems; chain copies: 2.
Take B7: the binding result is given as “binds”.
For B8, the binding result was “binds”.
Still for that read-out and setting: next, B9: “binds”; B10: “binds”; B11: “binds”.

For another data set, the target named is T1, NT-3 (neurotrophin-3). In words: cell_activity; TF-1 TrkC/p75 cells. The following applies: tags: R&D Systems; chain copies: 2.
From the text: as §1
In turn, B1 had an IC50 of 34400 pM. This lies in the double-digit nanomolar range.
The same measure, in the same setting: next, B2: 40600 pM.
B4 gave an IC50 of 970 pM.
With B5, 2150 pM corresponded to half-maximal inhibition (IC50).

The target in a further data set is T3, NGF (nerve growth factor). In words: cell_activity; neurite; TF-1 <0.03. The note with it: tags: R&D Systems; chain copies: 2.
Molecule B12 had an IC50 of 289 pM.
Molecule B6 came in with an IC50 of 100 pM.
